According to the supplement of paper PMC9170038:

Tested on: K4 kissing-loop RNA reporter
Assay: apparent KD of K4 kissing-loop reporter; higher = weaker reporter binding
Details: Eterna round: R107
Description: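 RNA-MaP round R107: designed RNA switches with theophylline, tryptophan, arginine or FMN aptamers are transcribed on-chip within common flanks. They are titrated with a labelled K4 kissing-loop RNA reporter in RNA-MaP buffer (100 mM Tris pH 7.5, 80 mM KCl, 4 mM MgCl2), without ligand or with the indicated ligand. Median apparent KD per design.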

[1] = input ligand: theophylline 20 uM
[2] = input ligand: tryptophan 2.4 mM
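Further: bound reporter read as fluorescence of individual clusters on recovered sequencing chips by microscopy, with normalized cluster intensities fitted with a binding model.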

Row | Sequence | apparent KD of K4 kissing-loop reporter (input ligand: FMN 200 uM) | apparent KD of K4 kissing-loop reporter (input ligand: arginine 13.2 mM) | apparent KD of K4 kissing-loop reporter (input ligand: none) | apparent KD of K4 kissing-loop reporter [1] | apparent KD of K4 kissing-loop reporter [2]
1 | CCUUCCGACACGGCCGCCACUAAUUUCAUCAGAUUGCCCGGAUUUCCAAGAUAGUGAUGUUGUACUAGGACCGGGUGUCAGGUCG [theeternabot_exclusion_KL_Trp_B_16] | 874 nM | 680 nM | 816 nM | 760 nM | 775 nM
2 | UGUCAUUGGUCGGCCGCCACUAGGACCGGGUAUAACCUAGUGAUGUUAGUGAGUACGGCCGCCACUAGGACCGGGACCGAUGACU [KL-SSTryp-B120 #DoubleAptamer] | 531 nM | 319 nM | 857 nM | 572 nM | 91.9 nM
3 | AGCAAUAUCACGGCCGCCACUGAAUAUUGUUUUUAUAGUUAUAAAUCUUGCCAGUGAUGUUGGUUCAGGACCGGGUGAGUUAAUA [JR_SSTryptoB_Sub003] | 572 nM | 596 nM | 625 nM | 748 nM | 429 nM
4 | GGUCGAGUGAUGUUCGAUGUAGUGCAUUCAGAGGAUAUAGGAUUGGCUAGAAGGCUGAAACCUUCUUCGAGUGAUGUUCGAGGAU [Same State FMN A GF5] | 130 nM | 83.8 nM | 112 nM | 90.1 nM | 77.8 nM
5 | UGAUACCAGACGGCCGCCACUCCCGUAAGUCAAAGACUUACGAAGAGAGUCGUCCAGUGAUGUUGGAGGACCGGGUCUGGUAUCU [FiskerMod 12 - Jieux - Exclusion - Tryptophan B] | 179 nM | 143 nM | 163 nM | 138 nM | 294 nM
6 | UUAGAGAUCUCAGGAUAUCAGUGAUGUUGUAAUCCAGAUCUGAGAUAGAAUUCUAUCUCAGAUCAAUGAGAAGGGAGAUCUCAUU [AK4.2 Exc FMN B] | 306 nM | 601 nM | 723 nM | 576 nM | 591 nM
7 | CUGUACAUCUCGGCCGCCACUGACAUGAGUGAUGUUCAUGUACAUGAGUGAUGUUCAUGUUCGGCCAGGACCGGGAGGUGUGCAG [KL-SSTryp-B2 #analogue #double KL] | 352 nM | 184 nM | 274 nM | 271 nM | 216 nM
8 | CGCGUUGGUUGAGAGGUUGGCGCGAAUGAUACCAGUAUAUAAGAAUACCCUUGGCAGCAUAAGAAAGAUAUAGUGAUGUUGUAUA [SSTheophA.I] | 469 nM | 232 nM | 454 nM | 289 nM | 420 nM
9 | GAUUCUAGCGAAAGUGAUGUUUUCGAGGAUACCAGUGCCACUUGACACCCUUGGCAGCCUACCCGUCAUCACAAGUGGCGUUAAA [theeternabot_exclusion_KL_Theo_A_28] | 136 nM | 114 nM | 129 nM | 138 nM | 118 nM
10 | GGGAGGAUUAAAUAAAUAAAUAAGAUAGAUACCAGUUGAGAGUAAGGCCCUUGGCAGCUAAAACGAGUGAUGUUCGAGUAAAUCC [Default title] | 81.6 nM | 88.8 nM | 63 nM | 147 nM | 62.4 nM
11 | AGUUUAGAGUGACUCGAUAAGAGUCACAAACGAGGACCGGUACGGCCGCCACUCGAAAUAACGAGAGUGAUGUUCUCGCUGGGUA [FiskerMod 4 - Jieux - Same State Tryptophan A] | 317 nM | 330 nM | 342 nM | 317 nM | 93.3 nM
12 | UGAUACCAGACGGCCGCCACUCCCGUAAGUCAAAGACUUACGAAGAGAAUCGUCCAGUGAUGUUGGAGGACCGGGUCUGGUAUCU [FiskerMod 11 - Jieux - Exclusion - Tryptophan B] | 680 nM | 664 nM | 818 nM | 600 nM | 785 nM
13 | CCUAUCUCAUACGAUACCAGUCAAUGAUCUUUGAUCAAUGCCAUCACCGAGUGAUGUUCGGACCCUUGGCAGCGUAUGAGAUGGG [whbob_Ex_Theo_B_sa104] | 276 nM | 203 nM | 255 nM | 376 nM | 246 nM
14 | AGUAUAGAGUCGGCCGCCACUGGUUUUAUGUGUGUCAAAUCUGGAUCAAAGUGAUGUUUUGAGACUAGGACCGGGACCAUUGUUA [#06 K4 Tryptophan B Exclusion] | 160 nM | 139 nM | 145 nM | 131 nM | 206 nM
15 | AGGCACGAGCAAGGAUAUUGAGUAGAGUGAUGUUCUGCCUGGGUUGGCUCGGAAGAGCCUUCUCAGCGAGAAGGUGCUCGUGCCU [#2 Same State - FMN A Attempt #24 (HarryS)] | 261 nM | 475 nM | 785 nM | 542 nM | 556 nM
16 | AACUCUCAGGCACGCGAGUGAUGUUCGCGGCGAGGACCGGUACGGCCGCCACUCGCGCCUGAGAGAGGUUAUCAAAGAUAGCCAA [whbob_SS_tryp_A] | 146 nM | 51.3 nM | 116 nM | 118 nM | 223 nM
17 | GUCCACACUGCAGGAUAUGGAGGUAUAGCGAGGGAGUGUGGAAGCACACCUCUGGCAGUGAUGUUGCCAGAAGGGCGGUGCGGCG [Masodionra] | 118 nM | 103 nM | 119 nM | 90.3 nM | 93.2 nM
18 | GAAUUAUGUAGAAGGAGCGUUAGAAGGUAUAGGUGCGAGUGAUGUUUGGAUUUGUUAAUUUGACAGGUAGGUCGCUACAGAAGGA [KL-SSArg B18 #analogue] | 946 nM | 259 nM | 567 nM | 205 nM | 306 nM
19 | UCACAAGUUAACUAGUGAUGUUAGUUAGUACGAGGACCGGUACGGCCGCCACUCGAAAAGUGGUUUUACGGACUUUUGGGCAGGC [theeternabot_sameState_KL_Trp_A_17] | 337 nM | 250 nM | 268 nM | 223 nM | 260 nM
20 | UAAUAAAUUCCAGCUGUAUCACUCUUCGAAGGAGCGGACGAAAGUCCAGGUAGGUCGCGAAGAGUGAUGUUCUUUGCGGCGCUGG [Omei KL Arginine A Exc A v6] | 82.3 nM | 68.4 nM | 94.8 nM | 76.6 nM | 57.1 nM
21 | UUUUUGGUUUAGAGUGAUGUUCCUUGUUUUCGAGGACCGGUACGGCCGCCACUCGAAAAGAAAAGAAAAGAAAAGAGUGAUGUUU [BDazzled - #1 SS Tryptophan A] | 342 nM | 252 nM | 362 nM | 311 nM | 258 nM

Row | Sequence | apparent KD of K4 kissing-loop reporter (input ligand: FMN 200 uM) | apparent KD of K4 kissing-loop reporter (input ligand: arginine 13.2 mM) | apparent KD of K4 kissing-loop reporter (input ligand: none) | apparent KD of K4 kissing-loop reporter [1] | apparent KD of K4 kissing-loop reporter [2]
22 | AAUAACUAGUAUAUUUUUAAUAAUACAGAUACCAGUGAUAAUAGACACCCUUGGCAGCUGAUCGAGUGAUGUUCGUUUAUUUUAA [#11 K4 Theophylline A Same State] | 80.2 nM | 86.9 nM | 85 nM | 129 nM | 64.7 nM
23 | UCUGCAAAGUCGGCCGCCACUCCGGGCCCUAUAAAUGGGCGCAGUGAUGUUGCGGCUAGGCCUCUGAGGACCGGGACUUUGUAGA [Atlesoqu] | 87.5 nM | 54.3 nM | 100 nM | 132 nM | 246 nM
24 | CCCGUGGGUUUGAGAGGGCUUGUGGGAAGUAAGGAUAUUUAGGGAGAAAGAAGGUACUAUAGAAUAUAGUGAUGUUAUAUAUGGG [#06 K4 FMN A Same State] | 238 nM | 218 nM | 232 nM | 126 nM | 170 nM
25 | CCAGGACGAUGAGGAUGAUGAAUUACUGAAGGAGCGCAUAUGGUUGCAGGUAGGUCGCGGUGAACAAGUAUAGUGAUGUUAUGCC [SSArgA.V] | 704 nM | 424 nM | 693 nM | 519 nM | 631 nM
26 | AGACUACCACACUGUCAAUAGACAGUGAACUCGGAUAUGCUGAUAAGCAGAAGGAGUGAUGUUCCUAGGUAGUCAAUAAAAUAAU [FmnAX 13 C32] | 160 nM | 242 nM | 376 nM | 370 nM | 359 nM
27 | CCCGUACCAGUGAUGUUGGUAUGGUCUGAUACCAGUCUGUAGUCGGGCCCUUGGCAGCAGACCCUUGCCAAGGUGACGACUCCGG [Qu] | 128 nM | 146 nM | 126 nM | 131 nM | 132 nM
28 | UGACUGGACUGAAGGAGCGCAAAACUCCUAGUGAUGUUAGGAAAACGAGACAAAGUCUCGAUGCAGGUAGGUCGCAGUCUAGUCU | 209 nM | 146 nM | 185 nM | 194 nM | 182 nM
29 | UAAUAUCAACUUGUAGGAGUGAUGUUCCGCCGAGGACCGGUACGGCCGCCACUCGACAAAAUCUCAGUGUGGUACCUAGGAAUUU [theeternabot_exclusion_KL_Trp_A_24] | 406 nM | 313 nM | 374 nM | 352 nM | 431 nM
30 | UGCACGGGCUCGGCCGCCACUCCCGCGGGUCGCAAGGUCCGCUACUGAGUGAUGUUCGGUUGGAGGAGGACCGGGAGCCCGUGCA [#2 Exclusion - Tryptophan B Attempt #27 (HarryS)] | 131 nM | 110 nM | 113 nM | 112 nM | 107 nM
31 | AAAUAAAUGGCGGCCGCCACUGAACGCCUCCGCGUGGGUAUAUAGUGAUGUUAUAUGGCCGCCAUCAGGACCGGGCCAAAUAAAA [#08 K4 Tryptophan B Same State] | 330 nM | 259 nM | 502 nM | 377 nM | 222 nM
32 | GUGCAGUGAUGUUGCACGAGGAAAGACGAUACCAGCCGUAAAUAAGGCCCUUGGCAGCGUGGGCUAGCACAAAAUAUGCUAGUCU [Laleingeat] | 97.9 nM | 99.6 nM | 107 nM | 68.4 nM | 117 nM
33 | CAAGGACGGCCGUAGGCAUACCGUCGAUUCAAGGAUAUCAAGAGAAUGAGAAGGUGAAGUUUAUACAGUGAUGUUGCUAUAGAGA [theeternabot_sameState_KL_FMN_A_6] | 133 nM | 122 nM | 168 nM | 195 nM | 152 nM
34 | UUCUCUCAGGCACGCGAGUGAUGUUCGCGGCGAGGACCGGUACGGCCGCCACUCGCGCCUGAGAGAGGUUAUCAAAGAUAGCCUU [whbob_SS_tryp_A] | 163 nM | 92.3 nM | 94.7 nM | 186 nM | 208 nM
35 | UGUGGAGAAUAUGAUACCAGCAGUGAGAGAGAGGAAGUAUAGUGAUGUUAUAUGAGAGAAUGCCCUUGGCAGCAUAUGAAGAAGG [SSTheophylB.E] | 174 nM | 120 nM | 148 nM | 138 nM | 115 nM
36 | GGCGGCUGCGCGCAAGCGCAGCCGGCCGAUACCAGCGCGACGGCGCGCCCUUGGCAGCGGCGCCGAGUGAUGUUCGGCCUGCCGU [#2 Same State - Theophylline A Attempt #22 (HarryS)] | 113 nM | 98.1 nM | 129 nM | 149 nM | 141 nM
37 | CGUGCCCAGCCGGAUACCAGUGACCCGCUGGGAACCGCGGGCCCAGAGUGAUGUUCGGGACACCCUUGGCAGCCGCCUGGGCGGC [#2 Same State - Theophylline B Attempt #12 (HarryS)] | 1380 nM | 724 nM | 462 nM | 440 nM | 1250 nM
38 | AGGAGUGAUGUUCCUACAUACACGGUCCGACGAGGACCGGUACGGCCGCCACUCGCGUCCCAGUGAUGUUGGGAUUUGGCGUACA [Exclusion Tryptophan A Gf 16] | 162 nM | 168 nM | 180 nM | 141 nM | 144 nM
39 | AAGAAUAAUCUUGCAGUGAUGUUGCAAGAUACCAGCAUCGAAAGAUGCCCUUGGCAGCUUGAAAACAUCACUAUCAAGCUGCAUA [Design2] | 620 nM | 452 nM | 664 nM | 552 nM | 558 nM
40 | GGUGUUGUUUGUGCUGUUUUCCUCGUUCCUCGAGGACCGGUACGGCCGCCACUCGAGUGAUGUUUGGGUAGCGAUCCCUGUUAGU [Bdazzled - #8 Exc. Tryptophan A] | 624 nM | 504 nM | 675 nM | 649 nM | 593 nM
41 | ACCAUCAAAGAUGGCCAGGACACCGCUGAUACCAGAGUGAAAACACUCCCUUGGCAGCAGGUGAGUGAUGUUCACAGUCCAUGGA [Omel KL Theo A SS B v2] | 566 nM | 422 nM | 588 nM | 901 nM | 361 nM
42 | GCAGUGAUGUUGCGGAUGUACAGUGGCGUGCGAGGACCGGUACGGCCGCCACUCGUACAGAGCAAGCUAAUACAUCGAUAGGUGA [whbob_SS_Tryp_A_m4] | 436 nM | 223 nM | 207 nM | 382 nM | 240 nM
